Experimental data: patent US20260022160A1 (AFFYXELL THERAPEUTICS, published 2026)

B1: clone-230 XT75 (trimer with a rigid linker and an HSA binding stefin A protein variant) (designed binder)
chain: IPGGLSEAKPATPEIQEIVDKVKPQLEEKTGETYGKLEAVQYKTQVVHYYVHYNDQGTNYYIKVRAGDNKYMHLKVFKSLWGENLFAKWEDLVLTGYQVDKNKDDELTGFAEAAAKEAAAKEAAAKEAAAKEAAAKEAAAKMIPGGLSEAKPATPEIQEIVDKVKPQLEEKTGETYGKLEAVQYKTQVVHYYVHYNDQGTNYYIKVRAGDNKYMHLKVFKSLWGENLFAKWEDLVLTGYQVDKNKDDELTGFAEAAAKEAAAKEAAAKEAAAKEAAAKEAAAKMIPGGLSEAKPATPEIQEIVDKVKPQLEEKTGETYGKLEAVQYKTQVVHYYVHYNDQGTNYYIKVRAGDNKYMHLKVFKSLWGENLFAKWEDLVLTGYQVDKNKDDELTGFAEAAAKEAAAKEAAAKEAAAKEAAAKEAAAKMIPRGLSEAKPATPEIQEIVDKVKPQLEEKTGETYGKLEAVQYKTQVLANFFQRRWPGSTNYYIKVRAGDNKYMHLKVFNGPWKFRNTDRGADRVLTGYQVDKNKDDELTGF
notes: also called AFX01-230 XT75
B2: clone-230 XT76 (tetramer with a rigid linker and an HSA binding stefin A protein variant) (designed binder)
chain: IPGGLSEAKPATPEIQEIVDKVKPQLEEKTGETYGKLEAVQYKTQVVHYYVHYNDQGTNYYIKVRAGDNKYMHLKVFKSLWGENLFAKWEDLVLTGYQVDKNKDDELTGFAEAAAKEAAAKEAAAKEAAAKEAAAKEAAAKMIPGGLSEAKPATPEIQEIVDKVKPQLEEKTGETYGKLEAVQYKTQVVHYYVHYNDQGTNYYIKVRAGDNKYMHLKVFKSLWGENLFAKWEDLVLTGYQVDKNKDDELTGFAEAAAKEAAAKEAAAKEAAAKEAAAKEAAAKMIPGGLSEAKPATPEIQEIVDKVKPQLEEKTGETYGKLEAVQYKTQVVHYYVHYNDQGTNYYIKVRAGDNKYMHLKVFKSLWGENLFAKWEDLVLTGYQVDKNKDDELTGFAEAAAKEAAAKEAAAKEAAAKEAAAKEAAAKMIPGGLSEAKPATPEIQEIVDKVKPQLEEKTGETYGKLEAVQYKTQVVHYYVHYNDQGTNYYIKVRAGDNKYMHLKVFKSLWGENLFAKWEDLVLTGYQVDKNKDDELTGFAEAAAKEAAAKEAAAKEAAAKEAAAKEAAAKMIPRGLSEAKPATPEIQEIVDKVKPQLEEKTGETYGKLEAVQYKTQVLANFFQRRWPGSTNYYIKVRAGDNKYMHLKVFNGPWKFRNTDRGADRVLTGYQVDKNKDDELTGF
B3: stefin A protein variant clone 268 (designed binder)
chain: MIPGGLSEAKPATPEIQEIVDKVKPQLEEKTGETYGKLEAVQYKTQVVGDSYWEYVSGTNYYIKVRAGDNKYMHLKVFKSLPYRWRPDHAEDLVLTGYQVDKNKDDELTGF

Tests used:
human CD40L [1] = biological target: T1, human CD40L (human, UniProt P29965 113-261, limits assumed); assay: cell-based or functional assay
T1 sequence (looked up): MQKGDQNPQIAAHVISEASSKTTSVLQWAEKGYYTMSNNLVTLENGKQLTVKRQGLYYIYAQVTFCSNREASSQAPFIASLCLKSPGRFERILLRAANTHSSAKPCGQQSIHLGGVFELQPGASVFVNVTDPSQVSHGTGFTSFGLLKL

human CD40L [2] = biological target: T1, human CD40L; assay: ELISA on plate-coated hCD40L, no HSA, detection with anti-cystatin antibody, OD 450-630 nm
Protocol: After a last washing step, TMB was added for the development of the experiment and the plates were read at 450 nm. The EC50 was then calculated using the interpolated non-linear four-parameters standard curve (FIG. 12C).

human serum albumin = biological target: T2, human serum albumin (human, UniProt P02768 25-609); assay: bridging ELISA: binder captured on plate-coated hCD40L, HSA 10 uM, bound HSA detected with anti-HSA antibody
T2 construct: also called HSA
Protocol: (§1) After saturation with 5% casein/PBS buffer, the plates were washed and a dilution of Stefin A protein variant or controls was incubated with HSA at a final concentration of 10 μM for 90 minutes. Plates were then washed, and a […], anti-HSA (HRP-conjugated) (Abcam), was added for 90 minutes. After a last washing step, TMB was added for the development of the experiment and the plates were read at 450 nm. The EC50 was then calculated using the interpolated non-linear four-parameters standard curve (FIG. 12C).

human CD40L [3] = biological target: T1, human CD40L; assay: bridging ELISA: capture on plate-coated hCD40L, HSA 10 uM, detection with anti-HSA antibody, OD 450-630 nm
Protocol: as §1

human CD40L [4] = biological target: T1, human CD40L; assay: ELISA on plate-coated hCD40L in the presence of HSA (10 uM), detection with anti-cystatin antibody, OD 450-630 nm
human CD40L [5] = biological target: T1, human CD40L; assay: competitive ELISA: hCD40L (1 nM) premixed with the binder and added to plate-coated rhCD40 Fc; bound hCD40L detected with biotinylated anti-hCD40L polyclonal antibody
Protocol: To evaluate the avidity of the different formats, a CD40L competitive ELISA was performed. Briefly, the plates were coated with rhCD40 Fc at 1 μg/ml and incubated overnight at 4° C. The plates were washed twice with 150 μl of washing buffer (PBS, Tween 20 0.1%) with a plate washer and saturated with Casein 5% (Sigma) in PBS for 90 minutes at room temperature (25±1° C.). […] The resulting solution was then mixed and added to the plates. The plates were washed 3 times as described previously. […] The plates were incubated for 90 minutes at room temperature (25±1° C.). The plates were then washed. PolyHRP-Streptavidin was then diluted in dilution buffer and added to the plates. The plates were incubated an additional 90 minutes at room temperature (25±1° C.). Plates were washed 3 times as described previously and the substrate (TMB, Pierce Thermo-Scientific) was added in the plate for 10 minutes. The reaction was stopped using an acidic solution and the plates were read at 450-630 nm and the resulting percent inhibition was calculated.

[6] = biological target: T3, human CD40L expressed on HEK293 cells (human, UniProt P29965 1-261); assay: flow cytometry, clone at 1 uM on hCD40L-HEK293 cells (hatched), HEK-293 negative cells as control (open), detection anti-Cystatin A + A488 anti-goat
T3 construct: whole, on cells; also called hCD40L-HEK293 cells; hCD40L-HEK-293 cells (Crown Biosciences, C2041)
T3 sequence (looked up): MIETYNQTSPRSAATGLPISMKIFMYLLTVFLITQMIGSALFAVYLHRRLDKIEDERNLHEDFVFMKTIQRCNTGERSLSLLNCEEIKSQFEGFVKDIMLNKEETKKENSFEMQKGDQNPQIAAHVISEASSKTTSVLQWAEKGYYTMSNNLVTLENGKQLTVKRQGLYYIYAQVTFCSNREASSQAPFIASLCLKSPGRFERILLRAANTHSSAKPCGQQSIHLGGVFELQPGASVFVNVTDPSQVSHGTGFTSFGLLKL
Protocol: The cells were resuspended in PBS and 200,000 cells per well were dispatched in a round bottom 96 well plate. Cells were washed with PBS. The stefin A protein variant and controls were diluted in staining buffer containing 1% BSA, 0.01% Sodium Azide (NaN3), 2 mM EDTA in DPBS in duplicate and added on cells for staining for approximately 60 min at 4±1° c. Cells were washed and the secondary anti-Cystatin A (R&D, AF1407) was diluted 0.2 mg/ml in staining buffer and added on cells for staining for approximately 45 min at 4±1° c. Cells were washed again and the detection antibody A488 anti-goat (ThermoFisher, A21467) was diluted 1:500 in staining buffer and added to the cells for staining (approximately 30 min at 4±1° C.). Finally, the cells were washed and live and dead cells were stained using L/D stain Zombie Yellow (Biolegend, 423103) diluted in staining buffer for 10 min at 4±1° C. Cells were washed again and fixation buffer (R&D) was added to each well for 10 min at 4±1° C. then PBS with EDTA (Lonza) was added prior reading the plate on the flow cytometer (Guava 12 HT, Millipore). Dead cells were excluded, and the fluorescent green channel (488 nm/525/30) was acquired. Results were analyzed using Incyte and data were plotted using GraphPad.

human CD40L [7] = biological target: T1, human CD40L; assay: direct binding ELISA on plate-coated hCD40L (5 ug/ml), detection biotinylated anti-cystatin A antibody + polyHRP-streptavidin, OD 450-630 nm; the table prints 268, the curve legend prints Clone -288 in its place
Protocol: Plates were washed 2 times with 150 μl of washing buffer (PBS, Tween 20 0.1%) with a plate washer and saturated with Casein 5% (Sigma) in PBS for 90 minutes at room temperature (25±1° C.). For binding, each DAW01 clone and rhCD40 Fc were added to the plate, starting from 1 μM, 1 in 3 and 300 nM, 1 in 3 respectively. Plates were washed 3 times as described previously. […] Then, cystatin A biotinylated polyclonal antibody (BAF1407) was diluted to a concentration of 0.05 μg/ml in dilution buffer (PBS, 1% casein, 0.01% Tween 20) and the plate was incubated for 90 minutes at room temperature (25±1° C.). PolyHRP-streptavidin was then diluted in dilution buffer and the plates were incubated for 90 minutes at room temperature (25±1° C.). The plates were then washed 3 times as described previously, and the substrate (TMB, Pierce Thermo-Scientific) was added to the plates for 10 minutes. The reaction was stopped using an acidic solution, and plates were read at 450-630 nm.

T2 sequence (P02768 25-609): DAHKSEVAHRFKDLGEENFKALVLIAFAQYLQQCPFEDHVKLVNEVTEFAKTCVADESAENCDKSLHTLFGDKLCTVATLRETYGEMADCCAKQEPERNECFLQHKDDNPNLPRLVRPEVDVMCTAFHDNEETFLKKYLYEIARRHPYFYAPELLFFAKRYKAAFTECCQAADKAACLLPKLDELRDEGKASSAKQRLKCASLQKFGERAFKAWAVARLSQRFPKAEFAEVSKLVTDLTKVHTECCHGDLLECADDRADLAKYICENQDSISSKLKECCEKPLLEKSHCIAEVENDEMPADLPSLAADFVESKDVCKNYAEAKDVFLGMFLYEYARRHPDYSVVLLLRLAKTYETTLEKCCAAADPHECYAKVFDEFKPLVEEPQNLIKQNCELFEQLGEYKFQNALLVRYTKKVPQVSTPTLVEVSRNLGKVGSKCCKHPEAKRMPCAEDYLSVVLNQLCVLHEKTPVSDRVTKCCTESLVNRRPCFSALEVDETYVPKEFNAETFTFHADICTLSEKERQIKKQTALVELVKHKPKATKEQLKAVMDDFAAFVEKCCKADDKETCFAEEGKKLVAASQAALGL

Binder	IC50 (read off the curve) (human CD40L [1]) [nM]	EC50 (human CD40L [2]) [nM]	binding result (human serum albumin)	EC50 (human CD40L [3]) [nM]	EC50 (human CD40L [4]) [nM]	IC50 (read off the curve) (human CD40L [5]) [nM]	% Positive [6] [%]	MFI [6] [MFI]	EC50 (human CD40L [7]) [nM]
B1	~8	0.02	binds	0.41	0.04	~4			
B2	~2	0.07		0.8	0.1	~3			
B3							95.7	7780	31.2
